The source of these data is US20240327505A1 (published 2024).

Test [1] has as its target T1, SARS-CoV-2 Spike (S) trimer (SARS-CoV-2, UniProt P0DTC2 16-1213). Put plainly: ELISA, S trimer coated, antibody at 1:50 dilution.
In test [2] the target is SARS-CoV-2 spike S2 protein (SARS-CoV-2, UniProt P0DTC2 686-1213).
Test [3] has as its target SARS-CoV-2 Envelope (E) protein (SARS-CoV-2, UniProt P0DTC4 1-75). Description: ELISA, Envelope.
In test [4] the target is SARS-CoV-2 Spike (S) trimer (SARS-CoV-2, UniProt P0DTC2 16-1213). Description: ELISA on coated S trimer, 1:50. (ELISA stands for enzyme-linked immunosorbent assay.)
Test [5] deals with SARS-CoV-2 spike S2 protein (SARS-CoV-2, UniProt P0DTC2 686-1213). The source holds these as a separate data set.
The target in test [6] is SARS-CoV-2 Spike (S) trimer (SARS-CoV-2, UniProt P0DTC2 16-1213). Description: ELISA, S trimer coated, antibody at 1:50 dilution. This is another data set of the same source.
For test [7], the target named is T1, SARS-CoV-2 Spike (S) trimer.
The target in test [8] is SARS-CoV-2 Nucleocapsid (N) protein (SARS-CoV-2, UniProt P0DTC9 1-419).

Where a chain is given by its changes, count along the chain named.

B1: AB-009610 (antibody, V domains shown)
VH: QVQLVQSGAEVKKPGSSVKVSCKASGGTFSNYAISWVRQAPGQGLEWMGRIIPILGIANYAQKFQGRVTITADKSTSTAYMELSSLRSEDTAVYYCATTPYYYDSSGYYLDYWGQGTLVTVSS
VL: not shown
In the case of B1, the “Optical Density (OD; 450 nm)” value in test [1] was found to be 2.02 OD 450 nm.

B2: AB-009325 (antibody, V domains shown)
VH: QVQLVESGGGVVQPGRSLRLSCAASGFTFNNYGMHWVRQAPGKGLEWVALISYEGSLKYYGDSVRGRFTVSRDNSRNTLYLQMNSLRVDDTAVYYCAKAGGIFAIHYYGMNVWGQGTTVTVSS
VL: QSVLTQPPSVSAAPGQKVTISCSGSSSNIGKNYVSWYRQFPGTAPKLLIYDNNKRPSGIPDRFSGSKSDTSATLGITGLQTGDEADYYCVTWDSSLSAGVFGGGTKLTVL
Take B2: in test [2], the affinity, expressed as Kd, was 46.7 pM; the off-rate (koff) (in general, the rate constant with which the complex falls apart) was found to be 2.77e-07 s⁻¹; the kon – broadly, the rate constant with which the complex forms – was determined as 5930 M⁻¹ s⁻¹. Also, the “OD 450 nm” value in test [3] was found to be 0.32 OD. For the same molecule, in test [4], the “OD 450 nm” value amounted to 1.39 OD.

B3: AB-009358 (antibody, V domains shown)
VH: QVHLVQSGAEVKKPGASVKISCKASGYTFTSYYVHWVRQAPGQGLEWMGIIKPSGAGTIYAQKFQGRVTMTRDTSTSTVYMELSSLISEDTAVYYCARGGGVTDRDYWGQGTLVTVSS
VL: QSALTQEASVSATVGQKVTLSCTGNTNNIGGYAVGWHQQISHGAPKTVMFGNSLPSGIPDRFSGSKSGTTASLIISGLQPEDEADYYCSTWDSSLGAVLFGGGTKLTVL
As to B3, in test [5], the dissociation constant (Kd) (in general, the equilibrium constant for the complex coming apart) was 478000 pM; the koff was found to be 0.00176 s⁻¹; the kon turned out to be 3690 M⁻¹ s⁻¹.

B4: AB-009271 (antibody, V domains shown)
VH: EVQLVESGGGLIQPGGSLRLSCAASGFIVSSNYMSWVRQAPGKGLEWVSVIYSGGSTYYADSVKGRFTISRDNSKNTLYLQMNSLRAEDTAVYYCARDYGDFYFDYWGQGTLVTVSS
VL: EIVMTQSPATLSVSPGERATLSCRASQSVSSNLAWYQQKPGQAPRLLIYGASTRATGIPARFSGSGSGTEFTLTISSLQSEDFAVYYCQQYYNWPRTFGQGTKVEIK
Take B4: in test [1], the “Optical Density (OD; 450 nm)” value was 2.94 OD 450 nm.

B5: AB-009613 (antibody, V domains shown)
VH: B4 VH with I28T
VL: not shown
With B5, the “Optical Density (OD; 450 nm)” value in test [1] was 2.47 OD 450 nm.

B6: AB-009629 (antibody, V domains shown)
VH: QVQLQQWGAGLLKPSETLSLTCAVYGGSFSGYYWSWIRQPPGKGLEWIGEINHSGSTNYNPSLKSRVTISVDTSKNQFSLKLSSVTAADTAVYFCARGTGIAVAGVLVNFYYCYYMDVWGKGTTVTVSS
VL: SSELTQDPAVSVALGQTVRITCQGDSLRSYYASWYQQKPGQAPVLVIYGKNNRPSGIPDRFSGSSSGNTASLTITGAQAEDEADYYCNSRDSSGNHLVFGGGTKLTVL
Take B6: the “Optical Density (OD; 450 nm)” value in test [6] was 0.114 OD 450 nm.

B7: AB-010020 (antibody, V domains shown)
VH: QMQLVQSGPEVKKPGTSVKVSCKASGFTFTSSAVQWVRQARGQRLEWIGWIVVGSGNTNYAQKFQERVTITRDMSTSTAYMELSSLRSEDTAVYYCAAPACSSTSCYDGFDIWGQGTMVTVSS
VL: not shown
For B7, the concentration giving a half-maximal response (EC50) (in general, the midpoint of the concentration-response curve) in test [7] came out at 150 pM. This counts as sub-nanomolar.

B8: AB-010021 (antibody, V domains shown)
VH: B7 VH with P99V, A100Y, S103G, T104G, Y107L, G109A
VL: not shown
Turning to B8, in test [7], the EC50 was 230 pM.

B9: AB-009190 (antibody, V domains shown)
VH: QVQLVESGGGVVQPGRSLRLSCAASGFTFSSYAMHWVRQAPGKGLEWVAVISYDGSNKYYADSVKGRFTISRDNSKNTLYLQMNSLRAEDTAVYYCARLNGDAYYYYGMDVWGQGTTVTVSS
VL: not shown
In test [8], B9 showed a Kd of 54100 pM, a dissociation rate constant (koff) of 0.000947 s⁻¹ and a kon of 17500 M⁻¹ s⁻¹. For the same molecule, the “OD 450 nm” value in test [3] is 0.469 OD.
